The experiment addresses Pin1 (Example 6, construct not stated) (human) (UniProt Q13526). As to the kind of experiment: fluorescence anisotropy. (In general: Fluorescence polarisation rises when a labelled molecule tumbles more slowly, as on binding a larger partner.)

Starred links: 1 amine or outer side, 2 acyl side, 3 side chain; linkers in the order of their positions; H or OH if unused. Non-standard residues stand in square brackets, D forms with d. Primed or numbered codes have the meaning given here. No end group written: not given here. Trimesoyl = O=C(c1cc(C(=O)[*:2])cc(C(=O)[*:3])c1)[*:1]; dPhe(4-CN) = N#Cc1ccc(C[C@@H](N)C(=O)O)cc1; d(pT) = C[C@H](OP(=O)(O)O)[C@@H](N)C(=O)O; Phe(4-F) = N[C@@H](Cc1ccc(F)cc1)C(=O)O; 2Nal = N[C@@H](Cc1ccc2ccccc2c1)C(=O)O; Pip′ = L-homoproline (pipecolyl); D‑4‑Phe = not defined here; Pip = O=C(O)[C@@H]1CCCCN1; d4Phe = not defined here; Dap = NC[C@H](N)C(=O)O; βAla = NCCC(=O)O; Sar = CNCC(=O)O

The term Kd denotes the equilibrium constant for the complex coming apart. A low value points to a tighter complex.

B1: peptide 12 (Table 18) (peptide)
peptide: Trimesoyl-[dF][Phe(4-F)][dT][Pip′][2Nal]R[Dap]F[2Nal]RRRR[Dap]K-NH2
modifications: linker (positions not given here) via Trimesoyl; not fully specified (some residues, bridges); printed as bicyclo[Tm-(D-Phe-Fpa-D-Thr-Pip-Nal-Arg)-Dap-(Phe-Nal-Arg-Arg-Arg-Arg-Dap)]-Lys
Regarding B1, the Kd was 2360 nM. This counts as single-digit micromolar.

B2: peptide 39 (Table 18) (peptide)
peptide: Trimesoyl-[D‑4‑Phe][Phe(4-F)][dI][Pip′][2Nal]RA[dF][Dap]F[2Nal]RRRR[Dap]K
modifications: linker (positions not given here) via Trimesoyl; not fully specified (C-terminus, bridges); printed as bicyclo[Tm-(D-4-Phe-Fpa-D-Ile-Pip-Nal-Arg-Ala-D-Phe)-Dap-(Phe-Nal-Arg-Arg-Arg-Arg-Dap)]-Lys; reading uncertain
The molecule B2 displayed a Kd of 460 nM. Against the preceding molecule, the Kd is about 5.1-fold lower.

B3: peptide 45 (Table 18) (peptide)
peptide: Trimesoyl-[dF][Phe(4-F)][dT][Pip′][2Nal]RA[dF][Dap][dR]R[dR]R[2Nal][dF][Dap]K
modifications: linker (positions not given here) via Trimesoyl; not fully specified (C-terminus, bridges); printed as bicyclo[Tm-(D-Phe-Fpa-D-Thr-Pip-Nal-Arg-Ala-D-Phe)-Dap-(D-Arg-Arg-D-Arg-Arg-Nal-D-Phe-Dap)]-Lys
On to B3, for which the Kd came to 3100 nM.

B4: peptide 14 (Table 18) (peptide)
peptide: Trimesoyl-P[Sar][dD][Pip′][2Nal]R[βAla][dA][Dap]F[2Nal]RRRR[Dap]K-NH2
modifications: linker (positions not given here) via Trimesoyl; not fully specified (some residues, bridges); printed as bicyclo[Tm-(Pro-Sar-D-Asp-Pip-Nal-Arg-β-Ala-D-Ala)-Dap-(Phe-Nal-Arg-Arg-Arg-Arg-Dap)]-Lys
Consider B4, for which the Kd stood at 1750 nM.

B5: peptide 22 (Table 18) (peptide)
peptide: Trimesoyl-P[Sar][dD][Pip′][2Nal]RR[dF][Dap]F[2Nal]RRRR[Dap]K-NH2
modifications: linker (positions not given here) via Trimesoyl; not fully specified (some residues, bridges); printed as bicyclo[Tm-(Pro-Sar-D-Asp-Pip-Nal-Arg-Arg-D-Phe)-Dap-(Phe-Nal-Arg-Arg-Arg-Arg-Dap)]-Lys
For B5, the Kd was 480 nM and the fold increase of Pin1 inhibitory activity on substitution of D-Phe for D-Ala was determined as 2 fold.

B6: peptide 44 (Table 18) (peptide)
peptide: Trimesoyl-[dF][Phe(4-F)][dT][Pip′][2Nal]RA[dF][Dap]R[2Nal]RFRR[Dap]K
modifications: linker (positions not given here) via Trimesoyl; not fully specified (C-terminus, bridges); printed as bicyclo[Tm-(D-Phe-Fpa-D-Thr-Pip-Nal-Arg-Ala-D-Phe)-Dap-(Arg-Nal-Arg-Phe-Arg-Arg-Dap)]-Lys
B6: the Kd was 450 nM.

B7: peptide 42 (Table 18) (peptide)
peptide: Trimesoyl-[dF][Phe(4-F)][dT][Pip′][2Nal]RA[dF][Dap]RRRR[2Nal]F[Dap]K
modifications: linker (positions not given here) via Trimesoyl; not fully specified (C-terminus, bridges); printed as bicyclo[Tm-(D-Phe-Fpa-D-Thr-Pip-Nal-Arg-Ala-D-Phe)-Dap-(Arg-Arg-Arg-Arg-Nal-Phe-Dap)]-Lys
In turn, B7 yielded a Kd of 980 nM.

B8: peptide 15 (Table 18) (peptide)
peptide: Trimesoyl-P[Sar][dD][Pip′][2Nal]R[βAla][βAla][Dap]F[2Nal]RRRR[Dap]K-NH2
modifications: linker (positions not given here) via Trimesoyl; not fully specified (some residues, bridges); printed as bicyclo[Tm-(Pro-Sar-D-Asp-Pip-Nal-Arg-β-Ala-β-Ala)-Dap-(Phe-Nal-Arg-Arg-Arg-Arg-Dap)]-Lys
The molecule B8 displayed a Kd of 4830 nM.

B9: peptide 38 (Table 18) (peptide)
peptide: Trimesoyl-[dPhe(4-CN)][Phe(4-F)][dT][Pip′][2Nal]RA[dF][Dap]F[2Nal]RRRR[Dap]K
modifications: linker (positions not given here) via Trimesoyl; not fully specified (C-terminus, bridges); printed as bicyclo[Tm-(D-4-CyanoPhe-Fpa-D-Thr-Pip-Nal-Arg-Ala-D-Phe)-Dap-(Phe-Nal-Arg-Arg-Arg-Arg-Dap)]-Lys
With B9, the Kd was found to be 350 nM.

B10: peptide 11 (Table 18) (peptide)
peptide: Trimesoyl-[dF][Phe(4-F)][dT][Pip][2Nal]RA[Dap]F[2Nal]RRRR[Dap]K
modifications: linker (positions not given here) via Trimesoyl; not fully specified (C-terminus, bridges); printed as bicyclo[Tm-(D-Phe-Fpa-D-Thr-Pip-Nal-Arg-Ala)-Dap-(Phe-Nal-Arg-Arg-Arg-Arg-Dap)]-Lys; also: FITC on C-terminal Lys side chain (FA labeling)
On to B10, for which the Kd was determined as 900 nM. This Kd is about 2.6-fold higher than that of the molecule before.

B11: peptide 16 (Table 18) (peptide)
peptide: Trimesoyl-P[Sar][dD][Pip′][2Nal]RA[dA][dA][Dap]F[2Nal]RRRR[Dap]K-NH2
modifications: linker (positions not given here) via Trimesoyl; not fully specified (some residues, bridges); printed as bicyclo[Tm-(Pro-Sar-D-Asp-Pip-Nal-Arg-Ala-D-Ala-D-Ala)-Dap-(Phe-Nal-Arg-Arg-Arg-Arg-Dap)]-Lys
As to B11, the Kd came to 2490 nM.

B12: peptide 17 (Table 18) (peptide)
peptide: Trimesoyl-P[Sar][dD][Pip′][2Nal]RY[dA][Dap]F[2Nal]RRRR[Dap]K-NH2
modifications: linker (positions not given here) via Trimesoyl; not fully specified (some residues, bridges); printed as bicyclo[Tm-(Pro-Sar-D-Asp-Pip-Nal-Arg-Tyr-D-Ala)-Dap-(Phe-Nal-Arg-Arg-Arg-Arg-Dap)]-Lys
As to B12, the Kd was found to be 2170 nM.

B13: peptide 35 (Table 18) (peptide)
peptide: Trimesoyl-[D‑2‑Fpa][Phe(4-F)][dT][Pip′][2Nal]RA[dF][Dap]F[2Nal]RRRR[Dap]K
modifications: linker (positions not given here) via Trimesoyl; not fully specified (C-terminus, bridges); printed as bicyclo[Tm-(D-2-Fpa-Fpa-D-Thr-Pip-Nal-Arg-Ala-D-Phe)-Dap-(Phe-Nal-Arg-Arg-Arg-Arg-Dap)]-Lys
On to B13, for which the Kd was determined as 590 nM.

B14: peptide 10 (Table 18) (peptide)
peptide: Trimesoyl-P[Sar][dD][Pip′][2Nal]R[Dap]F[2Nal]RRRR[Dap]K-NH2
modifications: linker (positions not given here) via Trimesoyl; not fully specified (some residues, bridges); printed as bicyclo[Tm-(Pro-Sar-D-Asp-Pip-Nal-Arg)-Dap-(Phe-Nal-Arg-Arg-Arg-Arg-Dap)]-Lys
B14: the Kd came to 3420 nM.

B15: peptide 46 (Table 18) (peptide)
peptide: [dA][Sar][d(pT)][Pip′][2Nal]YQK
modifications: lactam (positions not given here); not fully specified (C-terminus, bridges); printed as cyclo(D-Ala-Sar-D-pThr-Pip-Nal-Tyr-Gln)-Lys
Molecule B15 gave a Kd of 240 nM.

B16: peptide 36 (Table 18) (peptide)
peptide: Trimesoyl-[D‑3‑Fpa][Phe(4-F)][dT][Pip′][2Nal]RA[dF][Dap]F[2Nal]RRRR[Dap]K
modifications: linker (positions not given here) via Trimesoyl; not fully specified (C-terminus, bridges); printed as bicyclo[Tm-(D-3-Fpa-Fpa-D-Thr-Pip-Nal-Arg-Ala-D-Phe)-Dap-(Phe-Nal-Arg-Arg-Arg-Arg-Dap)]-Lys
In the case of B16, the Kd is 390 nM.

B17: peptide 43 (Table 18) (peptide)
peptide: Trimesoyl-[dF][Phe(4-F)][dT][Pip′][2Nal]RA[dF][Dap]RR[2Nal]FRR[Dap]K
modifications: linker (positions not given here) via Trimesoyl; not fully specified (C-terminus, bridges); printed as bicyclo[Tm-(D-Phe-Fpa-D-Thr-Pip-Nal-Arg-Ala-D-Phe)-Dap-(Arg-Arg-Nal-Phe-Arg-Arg-Dap)]-Lys
In turn, B17 returned a Kd of 1380 nM. This Kd lies about 3.5-fold higher than the previous one.

B18: peptide 41 (Table 18) (peptide)
peptide: Trimesoyl-[d4Phe][Phe(4-F)][dhGlu][Pip][2Nal]RA[dF][Dap]F[2Nal]RRRR[Dap]K
modifications: linker (positions not given here) via Trimesoyl; not fully specified (bridges); printed as bicyclo[Tm-(D-4-Phe-Fpa-D-homoGlu-Pip-Nal-Arg-Ala-D-Phe)-Dap-(Phe-Nal-Arg-Arg-Arg-Arg-Dap)]-Lys; reading uncertain
Molecule B18 had a Kd of 870 nM.

B19: peptide 27 (Table 18) (peptide)
peptide: Trimesoyl-[dF][Phe(4-F)][dT][Pip′][2Nal]RA[dF][Dap]F[2Nal]RRRR[Dap]K-NH2
modifications: linker (positions not given here) via Trimesoyl; not fully specified (some residues, bridges); printed as bicyclo[Tm-(D-Phe-4-Fpa-D-Thr-Pip-Nal-Arg-Ala-D-Phe)-Dap-(Phe-Nal-Arg-Arg-Arg-Arg-Dap)]-Lys
For the molecule B19, the Kd is 270 nM and the fold improvement of binding affinity against peptide 4 was determined as 2 fold.

The record behind these values is patent US20170355730A1.
